# Test system: Escherichia coli TOP10
# Assay: shrunken log2 fold change of peptide-encoding DNA abundance (4.5 h post-induction vs induction); higher = less antimicrobial activity (less host growth inhibition)
# Details: time post-induction: 4.5 h; library: site-saturation at positions 5, 18, 19, 20
# 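Note: peptides expressed intracellularly from a pBAD plasmid library in pooled LB shake-flask culture, induced with 0.3% L-arabinose, DNA abundance read by NGS, three biological replicates, DESeq2 with apeglm shrinkage.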
row,Sequence,shrunken log2 fold change
1,RRIRGRPPRLPRPRPRPFFWPRP,0.499
2,RRIRSRPPRLPRPRPRPYRVPRP,-0.0218
3,RRIRWRPPRLPRPRPRPGHHPRP,0.0195
4,RRIRFRPPRLPRPRPRPHRAPRP,-0.0573
5,RRIRTRPPRLPRPRPRPLSSPRP,-0.0339
6,RRIRIRPPRLPRPRPRPELGPRP,0.0694
7,RRIRIRPPRLPRPRPRPNCSPRP,-0.175
8,RRIRCRPPRLPRPRPRPNMVPRP,0.0392
9,RRIRDRPPRLPRPRPRPVVFPRP,0.457
10,RRIRARPPRLPRPRPRPDTNPRP,-0.0188
11,RRIRCRPPRLPRPRPRPTWTPRP,0.362
12,RRIRSRPPRLPRPRPRPDTVPRP,-0.323
13,RRIRHRPPRLPRPRPRPNVKPRP,-0.112
14,RRIRYRPPRLPRPRPRPGQEPRP,-0.0317
15,RRIRHRPPRLPRPRPRPQHSPRP,-0.376
16,RRIRHRPPRLPRPRPRPPPRPRP,1.25
17,RRIRPRPPRLPRPRPRPINSPRP,-0.236
18,RRIRQRPPRLPRPRPRPAPVPRP,1.06
19,RRIRQRPPRLPRPRPRPEEWPRP,0.0824
20,RRIRHRPPRLPRPRPRPMHAPRP,-9.3e-05
21,RRIRMRPPRLPRPRPRPSTYPRP,-0.347
22,RRIRYRPPRLPRPRPRPVHYPRP,-0.0657

row,Sequence,shrunken log2 fold change
1,RRIRSRPPRLPRPRPRPQGPPRP,-0.0522
2,RRIRNRPPRLPRPRPRPRDMPRP,-0.121
3,RRIRYRPPRLPRPRPRPNGSPRP,-0.289
4,RRIRRRPPRLPRPRPRPKNYPRP,-0.177
5,RRIRLRPPRLPRPRPRPIACPRP,0.0367
6,RRIRWRPPRLPRPRPRPHRKPRP,0.113
7,RRIRCRPPRLPRPRPRPEYKPRP,-0.415
8,RRIRIRPPRLPRPRPRPNQYPRP,-0.681
9,RRIRHRPPRLPRPRPRPGDTPRP,-0.0174
10,RRIRHRPPRLPRPRPRPWHKPRP,-0.113
11,RRIRTRPPRLPRPRPRPVFEPRP,-0.289
12,RRIRGRPPRLPRPRPRPIYSPRP,-0.05
13,RRIRCRPPRLPRPRPRPGDQPRP,0.256
14,RRIRWRPPRLPRPRPRPADQPRP,0.0591
15,RRIRDRPPRLPRPRPRPLSGPRP,-0.0838
16,RRIRPRPPRLPRPRPRPAWAPRP,0.45
17,RRIRGRPPRLPRPRPRPMVIPRP,0.329
18,RRIRERPPRLPRPRPRPATVPRP,-0.2
19,RRIRARPPRLPRPRPRPILHPRP,-0.0341
20,RRIRNRPPRLPRPRPRPQGVPRP,0.0991
21,RRIRFRPPRLPRPRPRPPENPRP,0.102
22,RRIRFRPPRLPRPRPRPDGVPRP,-0.14

row,Sequence,shrunken log2 fold change
1,RRIRWRPPRLPRPRPRPIKYPRP,-0.744
2,RRIRNRPPRLPRPRPRPNFSPRP,-0.0166
3,RRIRGRPPRLPRPRPRPNVMPRP,0.114
4,RRIRFRPPRLPRPRPRPRHEPRP,0.197
5,RRIRFRPPRLPRPRPRPNYGPRP,-0.125
6,RRIRSRPPRLPRPRPRPHISPRP,-0.035
7,RRIRWRPPRLPRPRPRPSNPPRP,-0.218
8,RRIRHRPPRLPRPRPRPHVTPRP,-0.373
9,RRIRMRPPRLPRPRPRPEDEPRP,2.06
10,RRIRERPPRLPRPRPRPYENPRP,0.0288
11,RRIRPRPPRLPRPRPRPMTEPRP,-0.0153
12,RRIRARPPRLPRPRPRPGAPPRP,0.703
13,RRIRDRPPRLPRPRPRPNKPPRP,-0.0743
14,RRIRFRPPRLPRPRPRPMFSPRP,-0.0614
15,RRIRWRPPRLPRPRPRPKMEPRP,0.577
16,RRIRERPPRLPRPRPRPSDCPRP,0.00151
17,RRIRLRPPRLPRPRPRPVPTPRP,0.0616
18,RRIRIRPPRLPRPRPRPYPYPRP,0.0143
19,RRIRWRPPRLPRPRPRPQVVPRP,-0.00458
20,RRIRIRPPRLPRPRPRPFDVPRP,-0.296
21,RRIRLRPPRLPRPRPRPQGVPRP,-0.0316
22,RRIRPRPPRLPRPRPRPDWKPRP,0.286

row,Sequence,shrunken log2 fold change
1,RRIRVRPPRLPRPRPRPPFHPRP,0.0102
2,RRIRWRPPRLPRPRPRPSPRPRP,0.299
3,RRIRGRPPRLPRPRPRPWRTPRP,-0.0149
4,RRIRTRPPRLPRPRPRPCPCPRP,-0.366
5,RRIRMRPPRLPRPRPRPFQNPRP,2.76
6,RRIRHRPPRLPRPRPRPKKFPRP,-0.123
7,RRIRDRPPRLPRPRPRPLFDPRP,0.393
8,RRIRTRPPRLPRPRPRPEDKPRP,-0.0305
9,RRIRCRPPRLPRPRPRPQRAPRP,-0.012
10,RRIRDRPPRLPRPRPRPFRTPRP,-0.0508
11,RRIRARPPRLPRPRPRPEPTPRP,0.832
12,RRIRARPPRLPRPRPRPKEPPRP,0.991
13,RRIRRRPPRLPRPRPRPRRVPRP,0.347
14,RRIRSRPPRLPRPRPRPRKKPRP,0.362
15,RRIRWRPPRLPRPRPRPDHSPRP,-0.198
16,RRIRARPPRLPRPRPRPPMRPRP,1.26
17,RRIRCRPPRLPRPRPRPEFRPRP,-0.0284
18,RRIRFRPPRLPRPRPRPGHLPRP,-0.459
19,RRIRGRPPRLPRPRPRPIDLPRP,0.00416
20,RRIRHRPPRLPRPRPRPDDTPRP,-0.00674
21,RRIRERPPRLPRPRPRPELAPRP,0.161
22,RRIRTRPPRLPRPRPRPSYCPRP,0.0739

row,Sequence,shrunken log2 fold change
1,RRIRPRPPRLPRPRPRPRTRPRP,0.187
2,RRIRERPPRLPRPRPRPDIWPRP,-0.0258
3,RRIRWRPPRLPRPRPRPKQHPRP,0.299
4,RRIRWRPPRLPRPRPRPHVHPRP,-0.126
5,RRIRDRPPRLPRPRPRPLAAPRP,0.913
6,RRIRCRPPRLPRPRPRPSMIPRP,-0.892
7,RRIRMRPPRLPRPRPRPWILPRP,-0.201
8,RRIRNRPPRLPRPRPRPACQPRP,-0.0318
9,RRIRDRPPRLPRPRPRPNICPRP,0.153
10,RRIRARPPRLPRPRPRPRFAPRP,0.513
11,RRIRHRPPRLPRPRPRPRPIPRP,0.117
12,RRIRFRPPRLPRPRPRPVRDPRP,1.66
13,RRIRCRPPRLPRPRPRPVYEPRP,-0.342
14,RRIRTRPPRLPRPRPRPKDDPRP,-0.124
15,RRIRRRPPRLPRPRPRPSQYPRP,0.0176
16,RRIRERPPRLPRPRPRPDEMPRP,-0.0223
17,RRIRTRPPRLPRPRPRPPMYPRP,-0.406
18,RRIRQRPPRLPRPRPRPYTEPRP,-0.00136
19,RRIRDRPPRLPRPRPRPNHQPRP,-0.303
20,RRIRLRPPRLPRPRPRPCKRPRP,-0.0962
21,RRIRTRPPRLPRPRPRPQTYPRP,-0.0726

# Reference: the supplement of paper PMC9112550, “Optimization of the antimicrobial peptide Bac7 by deep mutational scanning” (BMC Biology, 2022)
